This note sets out measurements from patent publication US20220227882A1 (TRUSTEES OF TUFTS COLLEGE, published 2022).

For assay [1], the target named is T1, Recombinant human ADAM8 (rHuADAM8) ectodomain protein (aa 17-497), ACRO Biosystems AD8-H5223 (human, UniProt P78325 17-497).
T1 construct: Bought protein made in HEK293 cells; The protein clips off its own prodomain (aa 17-191); also called rhADAM8; immunogen
T1 sequence: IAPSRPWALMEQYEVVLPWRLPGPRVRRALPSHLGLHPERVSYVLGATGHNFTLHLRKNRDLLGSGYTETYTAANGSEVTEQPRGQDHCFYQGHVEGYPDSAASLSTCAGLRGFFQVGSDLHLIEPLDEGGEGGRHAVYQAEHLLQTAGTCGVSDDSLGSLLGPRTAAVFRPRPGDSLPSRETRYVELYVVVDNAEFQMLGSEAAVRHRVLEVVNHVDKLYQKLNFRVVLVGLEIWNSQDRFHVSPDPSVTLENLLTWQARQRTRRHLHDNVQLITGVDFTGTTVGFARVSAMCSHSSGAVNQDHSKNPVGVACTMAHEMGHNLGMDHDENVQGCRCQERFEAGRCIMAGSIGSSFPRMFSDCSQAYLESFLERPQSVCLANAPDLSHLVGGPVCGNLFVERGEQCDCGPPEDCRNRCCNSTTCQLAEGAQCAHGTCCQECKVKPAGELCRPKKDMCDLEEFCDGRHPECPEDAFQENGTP
Put plainly: ELISA, coated rHuADAM8. The protocol: ELISAs were performed to assess the anti-ADAM8 antibodies for binding to rHuADAM8 during preparation and screening stages, using mouse sera, hybridoma supernatants and purified mouse and chimeric ADPs. ELISA plates (96-well) were coated with 1 μg/ml rHuADAM8 (Acro Biosystems, AD8-H5223) overnight at 4° C. Plates were washed three times with phosphate buffered saline (PBS) containing 0.05% Tween 20 (PBST) and blocked with 1% bovine serum albumin (BSA) in PBST at 37° C. for 1 hr. Plates were then exposed to sera, supernatants or purified antibodies for 1 hour at 37° C.
For analysis of antibodies in the serum of mice, pre-bleed and test bleed samples in 6 dilutions ranging from 1:100 to 1:10,000,000 were tested. For analysis of antibodies in hybridoma clone and subclone supernatants, plates were subjected to 50 μl of supernatants. A test bleed sample (1:1000) and hybridoma culture medium were used as positive and negative controls, respectively. For purified antibody characterization, coated plates were incubated with eight increasing concentrations of each specific ADP ranging from 10⁻⁵ to 10³ nM. Normal mouse IgG (1 μg/ml) was used as a negative control to indicate the level of general non-specific binding and a test bleed sample (1:100) was used as a positive control. Samples were washed three times with PBST and incubated for 30 minutes at 37° C. with a secondary goat anti-mouse IgG (Fc specific)-HRP antibody (Sigma A0168, 1:5000). After washing three times with PBST, the signal was developed with addition of 100 μl of the horseradish peroxidase substrate 3,3′,5,5′-Tetramethylbenzidine (TMB) for 10 minutes at room temperature, followed by quenching with 50 μl 1N HCl. Signal was read in a 96-well spectrophotometer at an optical density (OD) of 450 nm.

Assay [2] concerns the target T1, Recombinant human ADAM8 (rHuADAM8) …. Put plainly: adhesion of α9β1 integrin CHO cells to coated rHuADAM8, antibody 20 µg/ml, vs isotype control IgG; mean ± S.D., n=3. From the text:
To mimic this process and evaluate both the presence of an active DI domain on rHuADAM8 and the ability of ADPs to inhibit this activity in vitro, adhesion of Chinese Hamster Ovary (CHO) cells expressing α9β1 integrin vs the negative control αvβ3 integrin was used (Rao et al., J Bone Miner Res, 21(10): 1657-1665, 2006). CHO cells were maintained in DMEM high glucose (Invitrogen) supplemented with 10% FBS, 1% penicillin/streptomycin (Hyclone), L-glutamine (Gibco), non-essential amino acids (Gibco) and 100 μg/ml G418 (Teknova). Adhesion of CHO cells expressing α9β1 integrin or αvβ3 integrin to plates coated with rHuADAM8 (Acro Biosystems, AD8-H5223) was assessed as follows. Briefly, 96-well plates were coated overnight with 1.5 μg of rHuADAM8 per well, blocked with 1% BSA and washed with PBS.
To assess the ability of ADPs to inhibit DI activity, 96-well plates coated with rHuADAM8 as above were pre-treated in duplicate for 2 hours with either PBS, 20 μg/ml of dialyzed or protein A purified ADP, MAB1031 or control isotype-matched IgGs. Unattached cells were washed off and attached cells counted as above.

B1: ADP13 (antibody, IgG1, V domains shown)
VH: EVQLQQSGPEMVKPGTSVKISCKASGYTFTDYYINWVKQSHGKSLEWIGDISPNIGGATYNPKFKGKAILTVDKSARTAYMELRSLTSEDSAVYCCTRGGSSYPYFYAMDYWGQGTSVTVSS
VL: DIVMSQSPSSLAVSVGEKVTMSCKSSQSLLYSSNQKKYLAWYQQKPGQSPKLLIYWASTRESGVPDRFTGSGSGTDFTLTISSVKAEDLAVYYCQQFYSYPYTFGGGTKLEINR
notes: also called mADP13; mouse ADP13
Usually EC50 stands for the concentration that produces a half-maximal response. Regarding B1, the EC50 in assay [1] was 0.054 nM. The “% inhibition of α9β1 integrin binding to ADAM8” value (from here on “% inhibition”) in assay [2] turned out to be 78.5 % inhibition.

B2: ADP3 (antibody, IgG1, V domains shown)
VH: EVKLEESGGGLVQPGGSMKLSCAASGFTFSDAWMDWVRQSPEKGLEWVAEIRGKVNNLATYYVESVKGRFTISRDDSKSSVYLQMNSLRAEDTGIYYCLGRYDATYAMDYWGQGTSVTVSS
VL: DVVMTQTPLSLPVSLGDQASISCRSSQSLVHSDGNTYLHWYLQKPGQSPKLLIYKLSNRFSGVPDRFSGSGSGTDFTLKISRVEAEDLGVYFCSQSTHVPWTFGGGTKLEIK
In the case of B2, the EC50 in assay [1] turned out to be 0.049 nM. For the same molecule, in assay [2], the “% inhibition” value was found to be 69.3 % inhibition.

B3: ADP2 (antibody, V domains shown)
VH: EVKLVESGGGLVQPGGSLSLSCAASGFSFPDYYMSWVRQPPGKALEWLGFIRDSANGYTTEYIASVKGRFTFSRDNSQSILYLQMNALRAEDSATYYCARYSRYYGMDYWGQGTSVTVSS
VL: SIVMTQTPKILLVSAGDRVTITCKASQTVNYDVAWYQQKPGQSPKPVIYFASNRYTGVPDRFTGSGFGTDFTFTISTVQAEDLAVYFCQQDYSAPWTFGGGTKLEIK
notes: also called mADP2; mouse ADP2
On to B3, for which the EC50 in assay [1] turned out to be 0.029 nM. Moreover, in assay [2], the “% inhibition” value is 72 % inhibition.
